Reference: patent US20160200782A1 (MOERAE MATRIX, published 2016)

T1: LKB1(h) (human, UniProt Q15831 1-433, limits assumed)
T1 sequence (looked up): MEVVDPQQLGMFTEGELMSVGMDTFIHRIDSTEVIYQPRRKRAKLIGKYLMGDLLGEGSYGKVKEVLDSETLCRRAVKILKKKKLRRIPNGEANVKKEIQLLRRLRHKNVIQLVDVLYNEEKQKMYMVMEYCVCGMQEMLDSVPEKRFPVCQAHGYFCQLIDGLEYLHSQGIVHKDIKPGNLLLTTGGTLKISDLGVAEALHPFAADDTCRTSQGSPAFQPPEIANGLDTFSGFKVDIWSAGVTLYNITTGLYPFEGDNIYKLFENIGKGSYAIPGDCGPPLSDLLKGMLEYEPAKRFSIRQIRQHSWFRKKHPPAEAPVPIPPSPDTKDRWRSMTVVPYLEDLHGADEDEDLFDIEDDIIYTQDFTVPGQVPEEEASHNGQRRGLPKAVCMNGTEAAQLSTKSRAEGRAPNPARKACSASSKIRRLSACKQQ

T2: TBK1(h) (human, UniProt Q9UHD2 1-729, limits assumed)
T2 sequence (looked up): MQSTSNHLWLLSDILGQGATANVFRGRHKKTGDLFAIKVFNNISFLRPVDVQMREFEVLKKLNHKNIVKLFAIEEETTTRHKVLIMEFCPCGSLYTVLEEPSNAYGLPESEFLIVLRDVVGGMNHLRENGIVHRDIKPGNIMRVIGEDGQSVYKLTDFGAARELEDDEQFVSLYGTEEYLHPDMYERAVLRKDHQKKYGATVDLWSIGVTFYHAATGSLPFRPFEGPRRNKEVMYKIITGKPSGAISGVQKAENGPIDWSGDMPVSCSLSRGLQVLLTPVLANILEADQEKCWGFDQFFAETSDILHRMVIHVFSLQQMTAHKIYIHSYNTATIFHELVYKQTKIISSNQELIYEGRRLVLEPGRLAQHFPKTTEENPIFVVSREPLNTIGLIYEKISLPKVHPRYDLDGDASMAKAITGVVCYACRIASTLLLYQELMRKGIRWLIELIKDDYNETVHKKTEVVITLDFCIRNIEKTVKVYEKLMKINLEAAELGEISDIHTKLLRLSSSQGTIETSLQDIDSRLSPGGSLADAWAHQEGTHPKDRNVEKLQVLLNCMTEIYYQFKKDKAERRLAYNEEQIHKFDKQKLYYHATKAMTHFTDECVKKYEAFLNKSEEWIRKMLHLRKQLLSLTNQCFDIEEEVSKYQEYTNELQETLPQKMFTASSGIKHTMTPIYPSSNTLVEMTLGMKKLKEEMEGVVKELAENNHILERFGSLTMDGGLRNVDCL

T3: ZAP-70(h) (human, UniProt P43403 1-619, limits assumed)
T3 sequence (looked up): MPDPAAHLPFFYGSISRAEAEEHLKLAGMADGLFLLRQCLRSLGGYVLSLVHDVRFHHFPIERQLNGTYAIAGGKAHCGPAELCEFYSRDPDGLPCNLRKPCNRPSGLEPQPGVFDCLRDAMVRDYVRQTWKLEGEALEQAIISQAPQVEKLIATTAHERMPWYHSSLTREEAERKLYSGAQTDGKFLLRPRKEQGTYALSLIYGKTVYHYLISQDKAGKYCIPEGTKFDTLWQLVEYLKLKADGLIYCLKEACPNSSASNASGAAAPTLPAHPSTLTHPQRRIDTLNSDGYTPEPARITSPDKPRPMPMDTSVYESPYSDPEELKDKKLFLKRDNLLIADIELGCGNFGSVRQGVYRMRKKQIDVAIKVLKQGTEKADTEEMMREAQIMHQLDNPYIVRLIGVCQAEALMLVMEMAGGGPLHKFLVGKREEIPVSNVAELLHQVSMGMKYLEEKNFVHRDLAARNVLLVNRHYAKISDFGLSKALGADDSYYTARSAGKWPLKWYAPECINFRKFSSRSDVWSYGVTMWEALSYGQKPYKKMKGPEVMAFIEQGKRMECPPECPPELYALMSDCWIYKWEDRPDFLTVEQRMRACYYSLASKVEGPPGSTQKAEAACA

T4: EphA3(h) (human, UniProt P29320 566-983, limits assumed)
T4 sequence (looked up): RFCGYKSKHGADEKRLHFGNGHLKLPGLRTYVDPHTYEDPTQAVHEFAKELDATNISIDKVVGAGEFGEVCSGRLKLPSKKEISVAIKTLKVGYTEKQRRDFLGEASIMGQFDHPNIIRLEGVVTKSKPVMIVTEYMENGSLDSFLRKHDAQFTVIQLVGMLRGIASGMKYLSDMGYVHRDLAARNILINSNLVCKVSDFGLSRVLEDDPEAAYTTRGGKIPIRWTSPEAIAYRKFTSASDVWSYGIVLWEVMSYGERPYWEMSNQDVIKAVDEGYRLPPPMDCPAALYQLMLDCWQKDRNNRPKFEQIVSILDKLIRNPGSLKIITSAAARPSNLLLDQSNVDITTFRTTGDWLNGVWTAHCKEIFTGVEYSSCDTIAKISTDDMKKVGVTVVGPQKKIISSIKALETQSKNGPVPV


Tests used:
Assay in all cases: cell-based or functional assay
GRK6(h) = GRK6(h) (human, UniProt P43250 1-576, limits assumed)
IR(h), activated = IR(h), activated (human, UniProt P06213 1005-1310, limits assumed)
LKB1(h) = molecular target: T1, LKB1(h)
MSK1(h) = MSK1(h) (human, UniProt O75582 1-802, limits assumed)
PAK6(h) = PAK6(h) (human, UniProt Q9NQU5 1-681, limits assumed)
PKBα(h) = PKBα(h) (human, UniProt P31749 1-480, limits assumed)
TBK1(h) = molecular target: T2, TBK1(h)
ZAP-70(h) = molecular target: T3, ZAP-70(h)
cKit(V654A)(h) = cKit(V654A)(h) (human, UniProt P10721 544-976, limits assumed)
EphA3(h) = molecular target: T4, EphA3(h)

Sequence of PAK6(h) (Q9NQU5 whole entry): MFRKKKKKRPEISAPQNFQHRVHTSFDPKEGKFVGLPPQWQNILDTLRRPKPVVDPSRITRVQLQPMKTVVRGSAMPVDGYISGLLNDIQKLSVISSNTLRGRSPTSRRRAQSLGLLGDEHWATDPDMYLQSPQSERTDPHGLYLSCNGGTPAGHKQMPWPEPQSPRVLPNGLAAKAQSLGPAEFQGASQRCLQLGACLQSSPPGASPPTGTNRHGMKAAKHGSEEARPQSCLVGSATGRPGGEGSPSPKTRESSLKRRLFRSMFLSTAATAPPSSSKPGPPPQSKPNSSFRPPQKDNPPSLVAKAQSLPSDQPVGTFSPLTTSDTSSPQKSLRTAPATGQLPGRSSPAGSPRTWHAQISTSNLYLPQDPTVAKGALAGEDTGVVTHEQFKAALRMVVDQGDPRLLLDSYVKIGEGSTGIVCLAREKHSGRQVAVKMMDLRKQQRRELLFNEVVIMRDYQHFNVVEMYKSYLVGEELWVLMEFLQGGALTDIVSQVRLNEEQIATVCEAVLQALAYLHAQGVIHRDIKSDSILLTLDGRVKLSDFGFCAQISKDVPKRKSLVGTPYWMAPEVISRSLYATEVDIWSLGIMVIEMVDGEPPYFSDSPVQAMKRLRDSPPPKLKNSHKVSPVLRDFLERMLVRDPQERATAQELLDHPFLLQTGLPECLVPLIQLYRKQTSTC
Sequence of GRK6(h) (P43250 whole entry): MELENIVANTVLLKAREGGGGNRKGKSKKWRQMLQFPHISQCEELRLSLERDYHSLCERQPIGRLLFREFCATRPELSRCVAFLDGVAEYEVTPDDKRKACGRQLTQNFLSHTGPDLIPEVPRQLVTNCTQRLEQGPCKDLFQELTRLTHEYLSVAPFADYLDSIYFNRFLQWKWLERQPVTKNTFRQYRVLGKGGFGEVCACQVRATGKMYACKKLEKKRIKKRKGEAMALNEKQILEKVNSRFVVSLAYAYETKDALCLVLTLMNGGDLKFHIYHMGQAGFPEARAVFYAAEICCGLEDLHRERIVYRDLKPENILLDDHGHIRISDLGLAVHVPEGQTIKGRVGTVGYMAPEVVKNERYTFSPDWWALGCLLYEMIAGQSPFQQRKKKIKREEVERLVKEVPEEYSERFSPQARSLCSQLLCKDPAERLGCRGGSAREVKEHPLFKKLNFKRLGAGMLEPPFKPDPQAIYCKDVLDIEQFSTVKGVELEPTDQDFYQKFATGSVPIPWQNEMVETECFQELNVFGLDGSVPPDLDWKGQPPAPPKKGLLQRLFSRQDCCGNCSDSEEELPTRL
Sequence of PKBα(h) (P31749 whole entry): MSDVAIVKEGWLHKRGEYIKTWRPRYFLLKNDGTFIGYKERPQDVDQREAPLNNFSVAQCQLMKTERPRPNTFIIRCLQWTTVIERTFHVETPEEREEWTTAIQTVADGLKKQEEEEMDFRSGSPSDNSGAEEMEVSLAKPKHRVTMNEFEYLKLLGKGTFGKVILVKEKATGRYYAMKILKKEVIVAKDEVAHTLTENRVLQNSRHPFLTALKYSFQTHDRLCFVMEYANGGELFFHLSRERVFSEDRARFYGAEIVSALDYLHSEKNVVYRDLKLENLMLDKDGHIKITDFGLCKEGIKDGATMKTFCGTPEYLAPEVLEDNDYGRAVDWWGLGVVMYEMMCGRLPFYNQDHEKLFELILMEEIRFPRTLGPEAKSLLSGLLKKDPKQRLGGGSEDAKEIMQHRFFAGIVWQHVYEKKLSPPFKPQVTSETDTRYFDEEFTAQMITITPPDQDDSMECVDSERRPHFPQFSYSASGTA
Sequence of cKit(V654A)(h) (P10721 544-976 V654A limits assumed): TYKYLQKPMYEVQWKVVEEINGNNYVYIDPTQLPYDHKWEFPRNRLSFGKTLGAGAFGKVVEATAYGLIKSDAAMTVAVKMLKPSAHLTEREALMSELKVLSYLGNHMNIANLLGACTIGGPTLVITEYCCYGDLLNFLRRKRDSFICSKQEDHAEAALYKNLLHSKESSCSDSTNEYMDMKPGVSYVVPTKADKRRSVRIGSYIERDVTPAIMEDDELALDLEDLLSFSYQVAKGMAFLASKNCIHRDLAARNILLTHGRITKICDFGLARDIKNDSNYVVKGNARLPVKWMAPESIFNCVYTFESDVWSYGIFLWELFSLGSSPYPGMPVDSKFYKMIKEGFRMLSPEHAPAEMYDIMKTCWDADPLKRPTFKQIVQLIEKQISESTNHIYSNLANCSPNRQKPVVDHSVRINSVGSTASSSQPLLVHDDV
Sequence of MSK1(h) (O75582 whole entry): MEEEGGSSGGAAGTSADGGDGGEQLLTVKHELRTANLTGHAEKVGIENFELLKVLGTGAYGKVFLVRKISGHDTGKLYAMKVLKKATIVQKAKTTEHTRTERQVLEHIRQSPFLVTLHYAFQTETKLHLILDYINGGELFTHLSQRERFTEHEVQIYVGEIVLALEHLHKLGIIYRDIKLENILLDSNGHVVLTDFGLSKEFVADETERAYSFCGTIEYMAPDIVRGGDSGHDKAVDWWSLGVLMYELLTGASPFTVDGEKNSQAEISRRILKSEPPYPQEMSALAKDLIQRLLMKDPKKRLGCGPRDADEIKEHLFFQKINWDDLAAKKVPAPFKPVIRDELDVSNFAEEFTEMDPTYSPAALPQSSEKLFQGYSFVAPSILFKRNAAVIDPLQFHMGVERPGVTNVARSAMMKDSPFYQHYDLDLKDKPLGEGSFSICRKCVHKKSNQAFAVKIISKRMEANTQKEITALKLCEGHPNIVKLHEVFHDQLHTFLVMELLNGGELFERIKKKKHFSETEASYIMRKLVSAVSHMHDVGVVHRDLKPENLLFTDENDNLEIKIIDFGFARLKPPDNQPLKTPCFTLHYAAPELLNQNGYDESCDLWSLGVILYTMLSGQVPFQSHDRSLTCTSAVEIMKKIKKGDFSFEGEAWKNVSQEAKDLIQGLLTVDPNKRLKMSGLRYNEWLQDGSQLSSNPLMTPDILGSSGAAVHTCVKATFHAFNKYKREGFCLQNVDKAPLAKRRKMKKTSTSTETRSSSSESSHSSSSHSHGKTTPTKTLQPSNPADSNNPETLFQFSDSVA
Sequence of IR(h), activated (P06213 1005-1310 limits assumed): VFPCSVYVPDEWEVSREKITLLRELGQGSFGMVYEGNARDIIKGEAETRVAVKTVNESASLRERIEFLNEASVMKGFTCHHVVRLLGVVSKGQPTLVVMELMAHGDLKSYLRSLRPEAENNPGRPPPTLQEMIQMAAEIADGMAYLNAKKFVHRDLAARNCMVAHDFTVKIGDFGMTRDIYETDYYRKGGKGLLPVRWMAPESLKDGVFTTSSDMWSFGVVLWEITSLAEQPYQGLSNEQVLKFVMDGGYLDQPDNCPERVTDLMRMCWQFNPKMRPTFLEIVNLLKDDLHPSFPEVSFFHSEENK

Binder	% activity (GRK6(h)) [%]	% activity (IR(h), activated) [%]	% activity (LKB1(h)) [%]	% activity (MSK1(h)) [%]	% activity (PAK6(h)) [%]	% activity (PKBα(h)) [%]	% activity (TBK1(h)) [%]	% activity (ZAP-70(h)) [%]	% activity (cKit(V654A)(h)) [%]	% activity (EphA3(h)) [%]
FAKLAARLYRKALARQLGVAA [MMI-0300]	147	79	101	32	104	57	37	75	134	6
KAFAKLAARLYRKALARQLGVAA [MMI-0400]	141	59	89	28	100	67	39	33	150	12
